T1: human IL-2 receptor (IL-2Rα/IL-2Rβ/γc) (human, UniProt P01589 22-272; P14784 27-551; P31785 23-369)
T1 sequence 1: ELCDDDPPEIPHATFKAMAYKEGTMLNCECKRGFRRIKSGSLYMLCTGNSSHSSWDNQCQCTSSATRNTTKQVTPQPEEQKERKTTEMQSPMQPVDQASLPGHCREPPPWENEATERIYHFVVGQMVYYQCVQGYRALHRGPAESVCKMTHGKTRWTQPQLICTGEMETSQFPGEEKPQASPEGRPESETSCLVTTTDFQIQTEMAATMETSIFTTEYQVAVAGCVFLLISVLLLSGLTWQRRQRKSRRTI
T1 sequence 2: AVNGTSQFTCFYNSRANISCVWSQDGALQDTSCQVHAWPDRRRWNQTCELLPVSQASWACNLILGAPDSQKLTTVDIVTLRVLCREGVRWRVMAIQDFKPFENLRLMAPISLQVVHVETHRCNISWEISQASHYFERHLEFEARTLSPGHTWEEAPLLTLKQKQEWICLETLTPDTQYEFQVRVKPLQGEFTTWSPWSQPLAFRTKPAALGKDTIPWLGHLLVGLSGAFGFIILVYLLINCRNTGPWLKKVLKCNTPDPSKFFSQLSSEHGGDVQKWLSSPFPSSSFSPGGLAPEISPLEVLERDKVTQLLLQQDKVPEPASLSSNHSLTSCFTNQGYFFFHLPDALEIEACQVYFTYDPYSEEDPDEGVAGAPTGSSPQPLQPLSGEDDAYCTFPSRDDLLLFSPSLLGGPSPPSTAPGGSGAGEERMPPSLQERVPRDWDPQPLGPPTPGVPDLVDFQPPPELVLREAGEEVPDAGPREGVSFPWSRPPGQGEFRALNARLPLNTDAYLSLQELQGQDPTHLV
T1 sequence 3: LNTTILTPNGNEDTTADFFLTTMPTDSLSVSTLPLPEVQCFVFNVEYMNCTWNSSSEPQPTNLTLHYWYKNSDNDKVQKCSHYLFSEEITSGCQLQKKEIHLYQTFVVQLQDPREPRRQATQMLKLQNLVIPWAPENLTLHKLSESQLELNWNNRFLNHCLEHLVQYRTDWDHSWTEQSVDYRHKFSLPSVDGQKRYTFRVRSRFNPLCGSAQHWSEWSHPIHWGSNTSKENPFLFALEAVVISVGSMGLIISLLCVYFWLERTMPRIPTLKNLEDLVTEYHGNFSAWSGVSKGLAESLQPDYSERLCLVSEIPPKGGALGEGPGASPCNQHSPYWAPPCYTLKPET


Target: T1, human IL-2 receptor (IL-2Rα/IL-2Rβ/γc)
Assay: cell-based or functional assay

EC50 (nM) pSTAT5, NK, human PBMCs | EC50 (nM) pSTAT5, Treg, human PBMCs | Fold Max signal (% pSTAT5+) Treg/NK | Max signal (% pSTAT5+), NK | Max signal (% pSTAT5+), Treg | fold EC50 NK/Treg | Binder
0.572 nM | < 0.1 pM | 9 fold | 2.67 % pSTAT5+ | 23.5 % pSTAT5+ | > 5720 fold | DC00090 (other) chain 1: QLQLVESGGGLVQAGDSLRLSCAASGFNFGWHAMGWFRQAPGKEREFVATITWTGRDTYYADSVRGRFTISKDNAKDTLFLQMNSLRPDDTGVYYCAKARERATWAYSEDDCDYWGQGTQVTVSSDKTHTCPPCPAPEAAGGPSVFLFPPKPKDTLMISRTPEVTCVVVDVSHEDPEVKFNWYVDGVEVHNAKTKPREEQYNSTYRVVSVLTVLHQDWLNGKEYKCKVSNKALGAPIEKTISKAKGQPREPQVYTLPPSRDELTKNQVSLTCLVKGFYPSDIAVEWESNGQPENNYKTTPPVLDSDGSFLLYSKLTVDKSRWQQGNVFSCSVMHEALHNHYTQKSLSLSPGK chain 2: EVQLVESGGGLVQTGGSLRLSCAASGGTFSRDAMAWFRQVPGKEREFVALISWSGATTNYADSVKGRFAISRDNGKNTVYLQMNRLKPADTAIYYCAADRRPMGSRSYFEPTEYDDWGQGTQVTVSSGGGGSGGGGSGGGGSQVQLVESGGGLVQPGGSLRLSCATSGFTFRNNFMSWVRQAPGKGLEWVSTISYGGESTTYAESVKGRFTISRDNAKNTLYLQMNNLKPEDTAVYYCAKATSYDSIRSGSRGQGTQVTVSSGGGGSGGGGSGGGGSQVQLVESGGGLVQAGGSLTLSCAAPGRTFGTDVVGWFRQAPGKEREFVASISRSGDGIYYDDSVKGRFTISRNNAWNTVNLQMNSLKVEDTAVYYCAAGDGWSTYDYWGQGTQVTVSSGGGGSGGGGSGGGGSDKTHTCPPCPAPEAAGGPSVFLFPPKPKDTLMISRTPEVTCVVVDVSHEDPEVKFNWYVDGVEVHNAKTKPREEQYNSTYRVVSVLTVLHQDWLNGKEYKCKVSNKALGAPIEKTISKAKGQPREPQVYTLPPSRDELTKNQVSLTCLVKGFYPSDIAVEWESNGQPENNYKTTPPVLDSDGSFFLYSRLTVDKSRWQQGNVFSCSVMHEALHNHYTQKSLSLSPGK
0.307 nM | < 0.1 pM | 5 fold | 14.5 % pSTAT5+ | 67.7 % pSTAT5+ | > 3070 fold | DC00091 (other) chain 1: QLQLVESGGGLVQAGDSLRLSCAASGFNFGWHAMGWFRQAPGKEREFVATITWTGRDTYYADSVRGRFTISKDNAKDTLFLQMNSLRPDDTGVYYCAKARERATWAYSEDDCDYWGQGTQVTVSSDKTHTCPPCPAPEAAGGPSVFLFPPKPKDTLMISRTPEVTCVVVDVSHEDPEVKFNWYVDGVEVHNAKTKPREEQYNSTYRVVSVLTVLHQDWLNGKEYKCKVSNKALGAPIEKTISKAKGQPREPQVYTLPPSRDELTKNQVSLTCLVKGFYPSDIAVEWESNGQPENNYKTTPPVLDSDGSFLLYSKLTVDKSRWQQGNVFSCSVMHEALHNHYTQKSLSLSPGK chain 2: QVQLVESGGGLVQPGGSLRLSCATSGFTFRNNFMSWVRQAPGKGLEWVSTISYGGESTTYAESVKGRFTISRDNAKNTLYLQMNNLKPEDTAVYYCAKATSYDSIRSGSRGQGTQVTVSSGGGGSGGGGSGGGGSQVQLVESGGGLVQAGGSLTLSCAAPGRTFGTDVVGWFRQAPGKEREFVASISRSGDGIYYDDSVKGRFTISRNNAWNTVNLQMNSLKVEDTAVYYCAAGDGWSTYDYWGQGTQVTVSSGGGGSGGGGSGGGGSEVQLVESGGGLVQTGGSLRLSCAASGGTFSRDAMAWFRQVPGKEREFVALISWSGATTNYADSVKGRFAISRDNGKNTVYLQMNRLKPADTAIYYCAADRRPMGSRSYFEPTEYDDWGQGTQVTVSSGGGGSGGGGSGGGGSDKTHTCPPCPAPEAAGGPSVFLFPPKPKDTLMISRTPEVTCVVVDVSHEDPEVKFNWYVDGVEVHNAKTKPREEQYNSTYRVVSVLTVLHQDWLNGKEYKCKVSNKALGAPIEKTISKAKGQPREPQVYTLPPSRDELTKNQVSLTCLVKGFYPSDIAVEWESNGQPENNYKTTPPVLDSDGSFFLYSRLTVDKSRWQQGNVFSCSVMHEALHNHYTQKSLSLSPGK
 | < 0.1 pM | 6 fold | 4.82 % pSTAT5+ | 26.7 % pSTAT5+ |  | DC00092 (other) chain 1: QLQLVESGGGLVQAGDSLRLSCAASGFNFGWHAMGWFRQAPGKEREFVATITWTGRDTYYADSVRGRFTISKDNAKDTLFLQMNSLRPDDTGVYYCAKARERATWAYSEDDCDYWGQGTQVTVSSDKTHTCPPCPAPEAAGGPSVFLFPPKPKDTLMISRTPEVTCVVVDVSHEDPEVKFNWYVDGVEVHNAKTKPREEQYNSTYRVVSVLTVLHQDWLNGKEYKCKVSNKALGAPIEKTISKAKGQPREPQVYTLPPSRDELTKNQVSLTCLVKGFYPSDIAVEWESNGQPENNYKTTPPVLDSDGSFLLYSKLTVDKSRWQQGNVFSCSVMHEALHNHYTQKSLSLSPGK chain 2: QVQLVESGGGLVQPGGSLRLSCATSGFTFRNNFMSWVRQAPGKGLEWVSTISYGGESTTYAESVKGRFTISRDNAKNTLYLQMNNLKPEDTAVYYCAKATSYDSIRSGSRGQGTQVTVSSGGGGSGGGGSGGGGSEVQLVESGGGLVQTGGSLRLSCAASGGTFSRDAMAWFRQVPGKEREFVALISWSGATTNYADSVKGRFAISRDNGKNTVYLQMNRLKPADTAIYYCAADRRPMGSRSYFEPTEYDDWGQGTQVTVSSGGGGSGGGGSGGGGSQVQLVESGGGLVQAGGSLTLSCAAPGRTFGTDVVGWFRQAPGKEREFVASISRSGDGIYYDDSVKGRFTISRNNAWNTVNLQMNSLKVEDTAVYYCAAGDGWSTYDYWGQGTQVTVSSGGGGSGGGGSGGGGSDKTHTCPPCPAPEAAGGPSVFLFPPKPKDTLMISRTPEVTCVVVDVSHEDPEVKFNWYVDGVEVHNAKTKPREEQYNSTYRVVSVLTVLHQDWLNGKEYKCKVSNKALGAPIEKTISKAKGQPREPQVYTLPPSRDELTKNQVSLTCLVKGFYPSDIAVEWESNGQPENNYKTTPPVLDSDGSFFLYSRLTVDKSRWQQGNVFSCSVMHEALHNHYTQKSLSLSPGK
0.0752 nM | 0.735 nM | 6 fold | 11.4 % pSTAT5+ | 66.7 % pSTAT5+ |  | DC00093 (other) chain 1: QLQLVESGGGLVQAGDSLRLSCAASGFNFGWHAMGWFRQAPGKEREFVATITWTGRDTYYADSVRGRFTISKDNAKDTLFLQMNSLRPDDTGVYYCAKARERATWAYSEDDCDYWGQGTQVTVSSDKTHTCPPCPAPEAAGGPSVFLFPPKPKDTLMISRTPEVTCVVVDVSHEDPEVKFNWYVDGVEVHNAKTKPREEQYNSTYRVVSVLTVLHQDWLNGKEYKCKVSNKALGAPIEKTISKAKGQPREPQVYTLPPSRDELTKNQVSLTCLVKGFYPSDIAVEWESNGQPENNYKTTPPVLDSDGSFLLYSKLTVDKSRWQQGNVFSCSVMHEALHNHYTQKSLSLSPGK chain 2: QVQLVESGGGLVQAGGSLTLSCAAPGRTFGTDVVGWFRQAPGKEREFVASISRSGDGIYYDDSVKGRFTISRNNAWNTVNLQMNSLKVEDTAVYYCAAGDGWSTYDYWGQGTQVTVSSGGGGSGGGGSGGGGSEVQLVESGGGLVQTGGSLRLSCAASGGTFSRDAMAWFRQVPGKEREFVALISWSGATTNYADSVKGRFAISRDNGKNTVYLQMNRLKPADTAIYYCAADRRPMGSRSYFEPTEYDDWGQGTQVTVSSGGGGSGGGGSGGGGSQVQLVESGGGLVQPGGSLRLSCATSGFTFRNNFMSWVRQAPGKGLEWVSTISYGGESTTYAESVKGRFTISRDNAKNTLYLQMNNLKPEDTAVYYCAKATSYDSIRSGSRGQGTQVTVSSDKTHTCPPCPAPEAAGGPSVFLFPPKPKDTLMISRTPEVTCVVVDVSHEDPEVKFNWYVDGVEVHNAKTKPREEQYNSTYRVVSVLTVLHQDWLNGKEYKCKVSNKALGAPIEKTISKAKGQPREPQVYTLPPSRDELTKNQVSLTCLVKGFYPSDIAVEWESNGQPENNYKTTPPVLDSDGSFFLYSRLTVDKSRWQQGNVFSCSVMHEALHNHYTQKSLSLSPGK

Reference: patent US20240409645A1 (DUALYX, published 2024)
